# Source: PMC6642009
# Molecular target: FITC-SgbA(leader) (Streptomyces globisporus sp. NRRL B-2293)
# Assay: fluorescence polarisation
row,Substance,Kd [nM]
1,His6-SgbL(lyase-kinase 1–548) E270A (domain or fragment),1720
2,His6-MBP-SgbL(208–318) (domain or fragment),31000
3,His6-SgbL(lyase-kinase 1–548) K248A (domain or fragment),7110

# Stronger by Kd, values ahead:
row,Kd [nM],Substance
1,251,His6-SgbL(lyase-kinase 1–548) (domain or fragment)
2,321,His6-SgbL(lyase-kinase 1–548) N356A (domain or fragment)
3,576,His6-SgbL(lyase-kinase 1–548) D351A (domain or fragment)
4,353,His6-SgbL(lyase-kinase 1–548) D369A (domain or fragment)
